By Kd is commonly meant a measure of binding affinity in units of concentration.

Assay [1] concerns the target recombinant inter-α-inhibitor heavy chain 1 (rHC1), wild type (human) (UniProt P19827). In words: SPR; 1,500 RU rHC1 proteins immobilised on a C1 chip by amide cross-linking; ligand as analyte; HEPES-buffered saline pH 7.5, 0.05% Tween 20, 2 mM Mg2+, 2 mM Mn2+; 50 μl/min; multicycle kinetics, 1:1 Langmuir. (Surface plasmon resonance follows binding to a sensor surface in real time, without labels.)

For assay [2] the target is unchanged. Briefly: SPR; 1,500 RU rHC1 proteins immobilised on a C1 chip by amide cross-linking; ligand as analyte; HEPES-buffered saline pH 7.5, 0.05% Tween 20, 10 mM EDTA; 50 μl/min; multicycle kinetics, 1:1 Langmuir.
In assay [3] the target is recombinant inter-α-inhibitor heavy chain 1 (rHC1), D298A MIDAS mutant (human) (UniProt P19827). In words: SPR; 1,500 RU rHC1 proteins immobilised on a C1 chip by amide cross-linking; ligand as analyte; HEPES-buffered saline pH 7.5, 0.05% Tween 20, 2 mM Mg2+, 2 mM Mn2+; 50 μl/min; multicycle kinetics, 1:1 Langmuir.
Chain of recombinant inter-α-inhibitor heavy chain 1 (rHC1), D298A MIDAS mutant (human) (P19827 35-672 D298A): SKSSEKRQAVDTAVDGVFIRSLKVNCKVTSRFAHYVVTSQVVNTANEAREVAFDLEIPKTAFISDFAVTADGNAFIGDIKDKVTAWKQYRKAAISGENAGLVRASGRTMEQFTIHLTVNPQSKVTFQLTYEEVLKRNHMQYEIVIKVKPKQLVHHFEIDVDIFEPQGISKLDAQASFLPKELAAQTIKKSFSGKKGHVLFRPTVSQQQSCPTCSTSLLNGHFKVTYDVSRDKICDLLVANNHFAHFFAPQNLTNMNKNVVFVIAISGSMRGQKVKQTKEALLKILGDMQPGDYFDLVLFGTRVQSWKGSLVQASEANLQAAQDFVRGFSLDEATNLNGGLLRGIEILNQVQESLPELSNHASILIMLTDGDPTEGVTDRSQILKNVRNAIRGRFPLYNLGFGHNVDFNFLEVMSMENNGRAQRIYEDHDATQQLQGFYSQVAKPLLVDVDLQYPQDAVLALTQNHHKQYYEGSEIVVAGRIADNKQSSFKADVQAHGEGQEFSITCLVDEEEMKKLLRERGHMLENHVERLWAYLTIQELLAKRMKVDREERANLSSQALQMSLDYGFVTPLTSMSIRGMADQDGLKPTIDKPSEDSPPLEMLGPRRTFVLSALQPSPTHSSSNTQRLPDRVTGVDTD
For assay [4], the target named is complement C3 (human). In words: SPR; ~2,000 RU C3 immobilised on a CM5 chip by amide coupling; rHC1 or IαI as analyte; HEPES-buffered saline pH 7.5, 0.05% Tween 20, 2 mM Mg2+, 2 mM Mn2+; multicycle kinetics, 1:1 Langmuir.

Chain of recombinant inter-α-inhibitor heavy chain 1 (rHC1), wild type (human) (P19827 35-672): as the sequence (P19827 35-672 D298A) above, with A264D counted along it
Chain of LTBP1 N-terminal region (NT1), recombinant domain (domain or fragment) (Q14766 24-1721): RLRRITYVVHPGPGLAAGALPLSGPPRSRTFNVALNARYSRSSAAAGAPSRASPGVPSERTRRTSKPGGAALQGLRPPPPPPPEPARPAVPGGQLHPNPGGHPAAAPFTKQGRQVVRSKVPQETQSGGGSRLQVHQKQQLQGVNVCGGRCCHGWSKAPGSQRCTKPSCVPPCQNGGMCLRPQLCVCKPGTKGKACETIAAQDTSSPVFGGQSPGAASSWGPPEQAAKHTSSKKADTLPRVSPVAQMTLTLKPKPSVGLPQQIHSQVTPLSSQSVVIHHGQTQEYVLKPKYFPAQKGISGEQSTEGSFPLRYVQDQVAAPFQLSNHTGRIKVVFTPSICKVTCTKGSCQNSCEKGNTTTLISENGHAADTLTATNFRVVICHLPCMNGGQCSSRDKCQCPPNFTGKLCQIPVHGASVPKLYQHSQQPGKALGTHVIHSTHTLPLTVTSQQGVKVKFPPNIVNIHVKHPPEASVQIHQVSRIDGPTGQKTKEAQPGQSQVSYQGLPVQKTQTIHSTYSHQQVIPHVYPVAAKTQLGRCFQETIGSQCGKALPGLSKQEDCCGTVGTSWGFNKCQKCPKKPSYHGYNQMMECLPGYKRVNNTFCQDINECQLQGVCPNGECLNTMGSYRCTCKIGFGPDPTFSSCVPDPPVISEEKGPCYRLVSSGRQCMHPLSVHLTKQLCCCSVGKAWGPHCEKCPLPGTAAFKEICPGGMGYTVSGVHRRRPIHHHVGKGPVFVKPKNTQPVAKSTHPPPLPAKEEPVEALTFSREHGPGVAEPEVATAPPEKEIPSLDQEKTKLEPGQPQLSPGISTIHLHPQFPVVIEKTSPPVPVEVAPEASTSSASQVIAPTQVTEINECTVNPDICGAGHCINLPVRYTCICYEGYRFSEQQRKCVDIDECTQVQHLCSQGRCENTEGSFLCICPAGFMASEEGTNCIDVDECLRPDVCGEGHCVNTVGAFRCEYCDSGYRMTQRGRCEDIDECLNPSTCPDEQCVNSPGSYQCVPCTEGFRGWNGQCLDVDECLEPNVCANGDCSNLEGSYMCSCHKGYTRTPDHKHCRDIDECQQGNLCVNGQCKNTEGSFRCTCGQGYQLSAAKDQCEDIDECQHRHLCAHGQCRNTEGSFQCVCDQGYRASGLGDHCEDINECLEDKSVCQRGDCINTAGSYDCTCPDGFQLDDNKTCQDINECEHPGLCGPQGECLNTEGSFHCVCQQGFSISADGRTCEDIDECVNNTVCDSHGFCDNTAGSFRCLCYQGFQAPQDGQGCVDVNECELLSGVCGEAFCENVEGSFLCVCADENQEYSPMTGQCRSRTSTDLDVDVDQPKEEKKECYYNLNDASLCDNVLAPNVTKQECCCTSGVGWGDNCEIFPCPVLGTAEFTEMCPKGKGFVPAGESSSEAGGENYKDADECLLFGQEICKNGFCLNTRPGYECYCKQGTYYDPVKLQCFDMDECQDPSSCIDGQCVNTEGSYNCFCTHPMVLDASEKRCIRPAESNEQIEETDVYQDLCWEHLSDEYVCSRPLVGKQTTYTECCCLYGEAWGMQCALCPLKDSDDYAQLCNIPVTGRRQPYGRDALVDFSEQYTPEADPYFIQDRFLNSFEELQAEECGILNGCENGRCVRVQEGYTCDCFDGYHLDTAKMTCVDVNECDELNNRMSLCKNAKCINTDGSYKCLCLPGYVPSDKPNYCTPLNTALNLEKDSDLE

With “LTBP1 N-terminal region (NT1), recombinant domain (domain or fragment)”, the results for the Kd in assay [1] and in assay [2] were 0.0046 µM and 0.0051 µM, respectively.

As to “TGFβ1-LAP, small latent complex of TGFβ1 (from UniProt P01137 30-278)”, the Kd in assay [1] was determined as 0.0161 µM; in assay [3], 0.0149 µM.

“inter-α-inhibitor (IαI) (from UniProt P19827 35-672; P19823 55-702) (complex)” yielded a Kd in assay [4] of 0.659 µM.

The values above are taken from paper PMC7170535.
